± gives the standard deviation of the averaged measurements.
Assay: total protein half-life in vivo (active degradation + dilution); higher = more stable protein
[1] = E. coli NCM3722 delta-clpP delta-lon delta-hslV, growth: N-lim chemostat, doubling time 6 h
[2] = E. coli NCM3722 delta-clpP, growth: N-lim chemostat, doubling time 6 h
[3] = E. coli NCM3722 delta-hslV, growth: N-lim chemostat, doubling time 6 h
[4] = E. coli NCM3722 delta-lon, growth: N-lim chemostat, doubling time 6 h
[5] = E. coli NCM3722 delta-smpB, growth: N-lim chemostat, doubling time 6 h
[6] = wild type E. coli NCM3722, growth: C-lim chemostat, doubling time 3 h
[7] = wild type E. coli NCM3722, growth: C-lim chemostat, doubling time 6 h
[8] = wild type E. coli NCM3722, growth: C-lim chemostat, doubling time 12 h
[9] = wild type E. coli NCM3722, growth: N-lim chemostat, doubling time 6 h
[10] = wild type E. coli NCM3722, growth: N-lim chemostat, doubling time 12 h
[11] = wild type E. coli NCM3722, growth: P-lim chemostat, doubling time 6 h
[12] = wild type E. coli NCM3722, growth: P-lim chemostat, doubling time 12 h

Row | Sequence | total protein half-life in vivo [1] | total protein half-life in vivo [2] | total protein half-life in vivo [3] | total protein half-life in vivo [4] | total protein half-life in vivo [5] | total protein half-life in vivo [6] | total protein half-life in vivo [7] | total protein half-life in vivo [8] | total protein half-life in vivo [9] | total protein half-life in vivo [10] | total protein half-life in vivo [11] | total protein half-life in vivo [12]
1 | MATLIRLFIHPVKSMRGIGLTHALADVSGLAFDRIFMITEPDGTFITARQFPQMVRFTPSPVHDGLHLTAPDGSSAYVRFADFATQDAPTEVWGTHFTARIAPDAINKWLSGFFSREVQLRWVGPQMTRRVKRHNTVPLSFADGYPYLLANEASLRDLQQRCPASVKMEQFRPNLVVSGASAWEEDRWKVIRIGDVVFDVVKPCSRCIFTTVSPEKGQKHPAGEPLKTLQSFRTAQDNGDVDFGQNLIARNSGVIRVGDEVEILATAPAKIYGAAAADDTANITQQPDANVDIDWQGQAFRGNNQQVLLEQLENQGIRIPYSCRAGICGSCRVQLLEGEVTPLKKSAMGDDGTILCCSCVPKTALKLAR | 5.8 ± 0.31 h | 5.98 ± 1.1 h | 6.18 ± 1.1 h | 5.9 ± 0.56 h | 5.39 ± 0.28 h | 2.97 ± 0.61 h | 6.03 ± 0.76 h | 10.1 ± 0.74 h | 5.69 ± 0.15 h | 10.54 ± 0.032 h | 5.71 ± 0.41 h | 10.2 ± 1.8 h
2 | MATLLQLHFAFNGPFGDAMAEQLKPLAESINQEPGFLWKVWTESEKNHEAGGIYLFTDEKSALAYLEKHTARLKNLGVEEVVAKVFDVNEPLSQINQAKLA [P0ACX3] | 5.41 ± 1.1 h | 3.68 ± 0.39 h | 3.94 ± 0.085 h | 5.96 ± 0.17 h | 4.07 ± 0.095 h | 3.22 ± 0.24 h | 4.809 ± 0.035 h | 8.79 ± 2.3 h | 3.27 ± 0.054 h | 5.75 ± 0.85 h | 4.79 ± 0.49 h | 10.1 ± 1.1 h
3 | MATLTEDDVLEQLDAQDNLFSFMKTAHTILLQGIRQFLPSLFVDNDEEIVEYAVKPLLAQSGPLDDIDVALRLIYALGKMDKWLYADITHFSQFWHYLNEQDETPGFADDMTWDFISNVNSITRNAMLYDALKAMKFADFSVWSEARFSGMVKTALTLAVTTTLKELTP | 4.21 ± 0.82 h | 3.67 h | 2.45 h | 2.61 ± 0.36 h | 2.07 h | 2.02 h | > 8 h | 4.45 ± 0.14 h | 2.38 h | 4.18 h | 2.29 h | 3.96 ± 1 h
4 | MATPHINAEMGDFADVVLMPGDPLRAKYIAETFLEDAREVNNVRGMLGFTGTYKGRKISVMGHGMGIPSCSIYTKELITDFGVKKIIRVGSCGAVLPHVKLRDVVIGMGACTDSKVNRIRFKDHDFAAIADFDMVRNAVDAAKALGIDARVGNLFSADLFYSPDGEMFDVMEKYGILGVEMEAAGIYGVAAEFGAKALTICTVSDHIRTHEQTTAAERQTTFNDMIKIALESVLLGDKE [P0ABP8] | 5.35 ± 0.52 h | 4.9 ± 0.79 h | 4.26 ± 0.18 h | 5.28 ± 0.12 h | 4.44 ± 0.086 h | 3.14 ± 0.25 h | 5.99 ± 0.48 h | 12.6 ± 1.4 h | 4.38 ± 0.34 h | 7.48 ± 0.6 h | 5.65 ± 0.38 h | 13.1 ± 0.34 h
5 | MATVPTRSGSPRQLTTKQTGDAWEAQARRWLEGKGLRFIAANVNERGGEIDLIMREGRTTIFVEVRYRRSALYGGAAASVTRSKQHKLLQTARLWLARHNGSFDTVDCRFDVVAFTGNEVEWIKDAFNDHS | 6.46 ± 0.81 h |  | 2.03 h |  | 2.14 h |  | 2.97 h | 2.89 ± 0.49 h |  |  | 1.88 h | 3.74 h
6 | MATYLIGDVHGCYDELIALLHKVEFTPGKDTLWLTGDLVARGPGSLDVLRYVKSLGDSVRLVLGNHDLHLLAVFAGISRNKPKDRLTPLLEAPDADELLNWLRRQPLLQIDEEKKLVMAHAGITPQWDLQTAKECARDVEAVLSSDSYPFFLDAMYGDMPNNWSPELRGLGRLRFITNAFTRMRFCFPNGQLDMYSKESPEEAPAPLKPWFAIPGPVAEEYSIAFGHWASLEGKGTPEGIYALDTGCCWGGTLTCLRWEDKQYFVQPSNRHKDLGEAAAS | 4.24 ± 0.43 h | 4.196 ± 0.017 h | 3.52 ± 0.16 h | 3.56 ± 0.044 h | 3.68 ± 0.14 h | 2.71 ± 0.18 h | 4.718 ± 0.0074 h | 6.99 ± 0.28 h | 4.03 ± 0.15 h | 5.76 ± 0.16 h | 4.83 ± 0.51 h | 9.31 ± 0.91 h
7 | MAVAANKRSVMTLFSGPTDIYSHQVRIVLAEKGVSFEIEHVEKDNPPQDLIDLNPNQSVPTLVDRELTLWESRIIMEYLDERFPHPPLMPVYPVARGESRLYMHRIEKDWYTLMNTIINGSASEADAARKQLREELLAIAPVFGQKPYFLSDEFSLVDCYLAPLLWRLPQLGIEFSGPGAKELKGYMTRVFERDSFLASLTEAEREMRLGRS [P0ACA3] | 5.94 ± 0.21 h | 5.92 ± 0.064 h | 5.87 ± 0.5 h | 6.44 ± 0.27 h | 5.54 ± 0.15 h | 2.919 ± 0.029 h | 5.9 ± 0.62 h | 10.9 ± 0.67 h | 5.8 ± 0.29 h | 11.6 ± 0.58 h | 5.85 ± 0.11 h | 13.5 ± 1.2 h
8 | MAVAMDNAILENILRQVRPLIGQGKVADYIPALATVDGSRLGIAICTVDGQLFQAGDAQERFSIQSISKVLSLVVAMRHYSEEEIWQRVGKDPSGSPFNSLVQLEMEQGIPRNPFINAGALVVCDMLQGRLSAPRQRMLEVVRGLSGVSDISYDTVVARSEFEHSARNAAIAWLMKSFGNFHHDVTTVLQNYFHYCALKMSCVELARTFVFLANQGKAIHIDEPVVTPMQARQINALMATSGMYQNAGEFAWRVGLPAKSGVGGGIVAIVPHEMAIAVWSPELDDAGNSLAGIAVLEQLTKQLGRSVY [P0A6W0] | 5.51 ± 0.69 h | 6.48 ± 0.19 h | 6.52 ± 0.92 h |  | 6.07 ± 0.46 h | 3.12 ± 0.28 h |  | 12.8 ± 0.64 h | 5.88 ± 1.1 h | 12.2 ± 1.5 h | 5.82 ± 0.85 h | 13.1 ± 0.95 h
